The term stoichiometry N denotes the number of molecules, sites or subunits per partner or assembly.

This data set deals with the molecule itself. As to the kind of experiment: cryo-EM structure; single-particle cryo-EM of purified ASOR at pH 7.5 (digitonin, GDN or saposin nanodiscs) and at pH 4.5 (GDN or saposin nanodiscs; sodium citrate added); 5 mM Hepes, 150 mM NaCl; C3 symmetry; resting, activated and desensitized conformations.

B1: human ASOR (TMEM206) proton-activated chloride channel (natural protein)
chain: not shown
notes: full-length human ASOR (TMEM206), UniProt Q9H813; codon-optimised synthetic cDNA; GFP tag removed with PreScission protease; residues left by the cleavage site are not described; also called PAC; acid-sensitive outwardly rectifying channel; not shown: GFP, C-terminal, cleaved
Take B1: the “stoichiometry N” value stood at 3.

These data come from article PMC8809534, “Gating choreography and mechanism of the human proton-activated chloride channel ASOR” (Science Advances, 2022).
